B1: ZNF232 (parent)
chain: GKAYGWCSELIRHRRVHARKEPSH
B2: GLTSCR2 (parent)
chain: FQRRNMIEPRERAKFKRKYKVKLV

Variants of: B1
Test: protein stability index of a GFP-peptide fusion (GPS, HEK-293T) (PSI 1-6); higher = more stable
Conditions: c terminus: a fixed tail appended
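Further: lentivirally expressed fusions sorted by FACS into six bins by GFP to DsRed ratio, PSI derived from sequencing read proportions per bin multiplied by bin number.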

Protein stability index, by site and new letter:
H24: F 2.65; A 3.08; D 3.61; C 2.78; E 2.44; Y 2.46; K 3.55; T 2.97; G 3.7; M 2.5; Q 2.25; N 3.65; L 2.68; I 2.49; V 3.54; W 2.03; R 3.15; P 3.08; S 3.07
S23: H 3.16; E 3.92; V 2.82; P 2.95; L 2.54; K 3.49; N 3.05; G 3.32; T 3.03; M 2.12; Q 2.98; R 2.93; A 2.61; C 2.58; F 2.43; Y 2.19; W 1.76; I 2.48; D 3.66
P22: Y 3.58; S 3.21; V 2.82; W 1.79; T 3.02; R 3.17; Q 3.38

Variants of: B2
Test: as above
Conditions: c terminus: a fixed tail appended

Protein stability index: each site, then its substitutions
P9: N 2.34; C 2.14; R 2.5; L 1.78; K 2.52; F 2.4; S 2.33; V 2.19; G 1.71; A 3.52; Y 1.67; M 2.06; I 2.4; W 2.01; H 2.47; D 2.15; Q 2.38; T 1.99
R12: T 2.15; H 2.19; G 2.6; L 1.79; S 1.84; Q 2.43; E 2.5; A 1.87; V 1.5; M 2.69; Y 1.79; N 2.45; K 2.41; C 2; I 3.04; P 1.72; F 1.47; D 2.31
K16: I 2.64; H 2.32; E 1.86; D 2.63; C 1.87; A 1.62; G 2.18; F 2.4
I7: G 2.35; Y 1.92; R 2.46; P 2.25; W 1.9; V 2.24; S 3.04; K 2.1; C 2.78; D 3.27; E 2.22; L 1.99; A 2.15; N 2.64; T 2.31; M 2.67; Q 2.24; F 2.2; H 1.87
F15: G 2.96; M 2.76; H 3.14; I 2.51; C 2.67; N 2.69; A 2.65; S 3.08; L 3.05; T 2.66; P 2.44; R 3.73; E 2.97; D 2.32; W 2.12; Q 2.96; V 2.81; K 3.05; Y 2.7
N5: I 2.36; Y 2.33; G 2.57; L 2.83; A 2.59; Q 2.36; H 1.88; K 2.42; W 2.1; P 2.36; R 2.56; C 2.62; D 2.23; M 2.5; E 3.05; V 2.29; S 2.02; T 1.88; F 1.59
K14: Q 1.99; L 1.82; V 2.17; M 1.97; Y 2.39; N 2.02; W 2.85; E 2.74; G 1.39; F 2.77; A 1.81; C 1.26; R 2.02; P 1.68; I 2.5; S 2.3; D 2.09; T 2.33; H 2.03
E11: I 1.6; A 2.54; W 2.81; K 2.41; T 2.59; R 2.23; F 2.37; N 2.6; P 2.66; C 2.36; G 2.4; Q 2.25; S 2.2; V 1.88; L 2.63; M 2.37; Y 1.91; H 2.18; D 2.53
A13: E 2.56; M 2.08; L 2.29; N 3.21; P 2.02; V 3.38; R 2.72; I 2.13; D 1.7; G 2.08; T 2.03; K 2.37; C 1.98; W 1.61; Y 2.68; F 1.64; H 2.74; S 2.32; Q 2.35
E8: H 2.33; A 2.7; C 3.15; R 1.83; V 2.25; K 2.35; I 2.02; Q 1.64; F 1.82; L 2.27; G 2.18; W 1.91; M 2.34; S 2.04; P 2.42; Y 2.23; D 2.13; N 2.3; T 2.05
R3: Y 1.6; I 2.17; D 2.71; F 1.75; H 1.93; A 2.8; P 1.96; G 2.17; S 1.65; T 1.79; K 2.6; E 2.69; M 2.68; C 2.38; L 2.37; W 1.58; V 2.04; Q 2.26; N 2.66
Q2: N 2.42; P 2.06; Y 2.08; M 2.7; L 1.94; G 2.3; T 2.65; K 2.21; R 2.62; V 1.57; I 2.08; F 1.58; E 2.3; S 2.43; A 1.99; D 2.35; W 1.84; C 1.99; H 2.21
R4: E 2; Q 2.85; L 2.51; V 3.02; W 1.96; C 2.02; H 2.13; S 2.35; D 1.98; A 2.21; G 1.9; T 2.6; I 2.14; N 2.7; Y 2.42; K 1.95; M 1.86; P 1.73
F1: H 2.69; T 3.11; R 3.03; I 3.03; S 2.77; C 2.69; W 2.41; V 2.81; Q 2.99; N 2.59; E 2.57; A 3.04; P 3.05; M 2.08; Y 2.51; L 3.01; K 2.96; D 2.83
M6: L 1.63; K 2.52; I 2.25; R 2.92; T 3.15; C 1.74; A 2.56; D 2.31; N 2.27; G 2.57; P 2.25; H 2.33; S 3.25; W 3.61; Y 2.48; V 2.14; F 1.93; Q 2.74; E 3.08
R10: W 1.76; F 2; D 2.58; N 1.63; S 2.13; L 2.47; I 2.11; T 1.99; H 1.95; V 1.58; G 2.12; K 2.28; E 1.98; Q 1.53; M 1.92; Y 2.17; A 2.56; P 2.2; C 3.03

Reference: the supplement of paper PMC10567573
